Results from IntAct's records for PubMed 23063561.

B1: 1-phosphatidylinositol 4,5-bisphosphate phosphodiesterase gamma-1 (Homo sapiens), P19174 (parent)
chain: MAGAASPCANGCGPGAPSDAEVLHLCRSLEVGTVMTLFYSKKSQRPERKTFQVKLETRQITWSRGADKIEGAIDIREIKEIRPGKTSRDFDRYQEDPAFRPDQSHCFVILYGMEFRLKTLSLQATSEDEVNMWIKGLTWLMEDTLQAPTPLQIERWLRKQFYSVDRNREDRISAKDLKNMLSQVNYRVPNMRFLRERLTDLEQRSGDITYGQFAQLYRSLMYSAQKTMDLPFLEASTLRAGERPELCRVSLPEFQQFLLDYQGELWAVDRLQVQEFMLSFLRDPLREIEEPYFFLDEFVTFLFSKENSVWNSQLDAVCPDTMNNPLSHYWISSSHNTYLTGDQFSSESSLEAYARCLRMGCRCIELDCWDGPDGMPVIYHGHTLTTKIKFSDVLHTIKEHAFVASEYPVILSIEDHCSIAQQRNMAQYFKKVLGDTLLTKPVEISADGLPSPNQLKRKILIKHKKLAEGSAYEEVPTSMMYSENDISNSIKNGILYLEDPVNHEWYPHYFVLTSSKIYYSEETSSDQGNEDEEEPKEVSSSTELHSNEKWFHGKLGAGRDGRHIAERLLTEYCIETGAPDGSFLVRESETFVGDYTLSFWRNGKVQHCRIHSRQDAGTPKFFLTDNLVFDSLYDLITHYQQVPLRCNEFEMRLSEPVPQTNAHESKEWYHASLTRAQAEHMLMRVPRDGAFLVRKRNEPNSYAISFRAEGKIKHCRVQQEGQTVMLGNSEFDSLVDLISYYEKHPLYRKMKLRYPINEEALEKIGTAEPDYGALYEGRNPGFYVEANPMPTFKCAVKALFDYKAQREDELTFIKSAIIQNVEKQEGGWWRGDYGGKKQLWFPSNYVEEMVNPVALEPEREHLDENSPLGDLLRGVLDVPACQIAIRPEGKNNRLFVFSISMASVAHWSLDVAADSQEELQDWVKKIREVAQTADARLTEGKIMERRKKIALELSELVVYCRPVPFDEEKIGTERACYRDMSSFPETKAEKYVNKAKGKKFLQYNRLQLSRIYPKGQRLDSSNYDPLPMWICGSQLVALNFQTPDKPMQMNQALFMTGRHCGYVLQPSTMRDEAFDPFDKSSLRGLEPCAISIEVLGARHLPKNGRGIVCPFVEIEVAGAEYDSTKQKTEFVVDNGLNPVWPAKPFHFQISNPEFAFLRFVVYEEDMFSDQNFLAQATFPVKGLKTGYRAVPLKNNYSEDLELASLLIKIDIFPAKENGDLSPFSGTSLRERGSDASGQLFHGRAREGSFESRYQQPFEDFRISQEHLADHFDSRERRAPRRTRVNGDNRL

Variants of: B1
Conditions: with fgfr1_human FGFR1, P11362
Sequence of fgfr1_human FGFR1, P11362 (P11362 whole entry, looked up): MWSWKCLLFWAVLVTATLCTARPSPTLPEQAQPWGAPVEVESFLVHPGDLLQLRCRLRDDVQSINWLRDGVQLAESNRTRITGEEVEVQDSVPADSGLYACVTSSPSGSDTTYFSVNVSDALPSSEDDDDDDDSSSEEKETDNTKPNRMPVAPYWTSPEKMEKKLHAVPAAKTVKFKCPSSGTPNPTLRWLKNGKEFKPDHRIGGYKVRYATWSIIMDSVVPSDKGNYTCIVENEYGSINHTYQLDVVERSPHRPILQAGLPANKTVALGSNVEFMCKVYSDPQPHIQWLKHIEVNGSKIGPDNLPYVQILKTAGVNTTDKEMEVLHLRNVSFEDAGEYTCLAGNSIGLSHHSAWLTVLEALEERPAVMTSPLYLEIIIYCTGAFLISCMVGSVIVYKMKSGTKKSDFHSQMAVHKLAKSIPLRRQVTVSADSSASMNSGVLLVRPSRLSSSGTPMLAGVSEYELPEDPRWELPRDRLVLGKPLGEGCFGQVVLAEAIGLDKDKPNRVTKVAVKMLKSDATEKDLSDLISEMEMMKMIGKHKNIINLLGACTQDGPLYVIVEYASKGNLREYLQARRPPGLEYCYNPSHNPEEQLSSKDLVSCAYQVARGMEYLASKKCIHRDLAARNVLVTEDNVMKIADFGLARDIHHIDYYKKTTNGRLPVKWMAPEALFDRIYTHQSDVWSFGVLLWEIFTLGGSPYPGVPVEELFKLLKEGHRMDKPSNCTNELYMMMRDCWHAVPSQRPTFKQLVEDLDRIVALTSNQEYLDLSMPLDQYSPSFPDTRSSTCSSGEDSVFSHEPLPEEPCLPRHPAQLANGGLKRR

effect of a mutation on the interaction	Variant
disrupting interaction strength	R586L

Variants of: B1
Conditions: with fgfr1_human FGFR1, P11362
Remark: another data set of the same source

effect of a mutation on the interaction	Variant
increasing interaction strength	Y783F
